# ± gives the uncertainty stated by the source.
# B1: library; numbered along this chain (parent)
# chain: MEVVDPQQLGMFTEGELMSVGMDTFIHRIDSTEVIYQPRRKRAKLIGKYLMGDLLGEGSYGKVKEVLDSETLCRRAVKILKKKKLRRIPNGEANVKKEIQLLRRLRHKNVIQLVDVLYNEEKQKMYMVMEYCVCGMQEMLDSVPEKRFPVCQAHGYFCQLIDGLEYLHSQGIVHKDIKPGNLLLTTGGTLKISDLGVAEALHPFAADDTCRTSQGSPAFQPPEIANGLDTFSGFKVDIWSAGVTLYNITTGLYPFEGDNIYKLFENIGKGSYAIPGDCGPPLSDLLKGMLEYEPAKRFSIRQIRQHSWFRKKHPPAEAPVPIPPSPDTKDRWRSMTVVPYLEDLHGADEDEDLFDIEDDIIYTQDFTVPGQVPEEEASHNGQRRGLPKAVCMNGTEAAQLSTKSRAEGRAPNPARKACSASSKIRRLSACKQQ
# Variants of: B1
# Assay: STK11 functional score (HeLa growth suppression), rescaled enrichment; synonymous median = 1, nonsense median = 0 (normalised score)
# Details: with HeLa; variant type: missense
# Procedure, shortened: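 HeLa cells carrying an AAVS1 landing pad received codon-optimised STK11 libraries made by codon randomisation (POPCode), integrated by Bxb1, with three regions each transfected three times. Integrants that were BFP-negative and mCherry-positive were sorted by FACS 4–5 days after electroporation and then grown for about two weeks. Tiled amplicons from gDNA were sequenced on NextSeq at ~2 million reads per tile. The functional score is a wild-type-corrected log ratio of post- to pre-selection counts, rescaled to the synonymous and nonsense medians, merged across codons and replicate transfections, and given a bootstrapped error.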
row,Variant,STK11 functional score
1,S283Q,1.51 ± 0.21
2,L45Y,0.913 ± 0.38
3,L113W,0.222 ± 0.11
4,L344Y,0.904 ± 0.2
5,L105S,1.29 ± 0.15
6,S404E,1.34 ± 0.5
7,Y131R,0.218 ± 0.086
8,Y131V,0.785 ± 0.087
9,R87T,1.48 ± 0.38
10,M11L,1.52 ± 0.23
11,T24L,1.18 ± 0.13
12,K329F,1.18 ± 0.49
13,K329E,1.32 ± 0.077
14,K329P,1.47 ± 0.2
15,K403A,1.6 ± 0.27
16,C430W,1.02 ± 0.59
17,G187L,1.27 ± 0.2
18,G15V,1.1 ± 0.24
19,G15P,1.66 ± 0.28
20,G257R,0.694 ± 0.29
21,G257Y,1.57 ± 0.13
22,M139D,-0.172 ± 0.088
23,I177G,-0.017 ± 0.094
24,L102G,1.07 ± 0.08

row,Variant,STK11 functional score
1,R74T,-0.214 ± 0.22
2,I35G,1.25 ± 0.57
3,T13P,1.58 ± 0.38
4,T13L,0.906 ± 0.11
5,C132Q,1.58 ± 0.14
6,P413G,1.56 ± 0.22
7,P221C,0.759 ± 0.11
8,S401E,1.24 ± 0.46
9,D358C,1.53 ± 0.14
10,D358G,1.08 ± 0.14
11,A76H,0.362 ± 0.17
12,V173Y,1.04 ± 0.13
13,N226L,1.08 ± 0.2
14,N226V,0.778 ± 0.56
15,N226I,0.495 ± 0.48
16,R42K,1.26 ± 0.84
17,T209S,0.82 ± 0.11
18,T209F,0.568 ± 0.088
19,T209I,0.703 ± 0.26
20,T209H,1.34 ± 0.18
21,R384V,1.22 ± 0.16
22,L341P,1.54 ± 0.14
23,E317L,1.34 ± 0.27
24,E317V,1.36 ± 0.11

row,Variant,STK11 functional score
1,A153W,-0.261 ± 0.095
2,D330C,1.33 ± 0.33
3,D330E,0.786 ± 0.24
4,D330S,1.47 ± 0.28
5,L55G,1.53 ± 0.23
6,G346L,1.38 ± 0.15
7,S69L,1.24 ± 0.16
8,Q382W,1.06 ± 0.094
9,V337C,1.15 ± 0.19
10,Y292A,1.15 ± 0.26
11,Y292P,1.38 ± 0.19
12,L85T,-0.0975 ± 0.19
13,S232Y,0.917 ± 0.16
14,S169W,1.25 ± 0.35
15,E138S,1.26 ± 0.12
16,Y272T,1.44 ± 0.45
17,Y272H,1.08 ± 0.32
18,Y272V,0.735 ± 0.11
19,Y272L,0.641 ± 0.46
20,M125A,1.14 ± 0.36
21,G251Y,0.258 ± 0.24
22,I192Y,1.11 ± 0.19
23,N109H,-0.0132 ± 0.079
24,N259V,0.437 ± 0.1

row,Variant,STK11 functional score
1,G188I,1.04 ± 0.29
2,G188W,0.946 ± 0.11
3,M392S,1.52 ± 0.26
4,M392P,1.63 ± 0.27
5,A347M,1.54 ± 0.17
6,R425P,1.51 ± 0.24
7,R425E,1.23 ± 0.47
8,H174P,0.0698 ± 0.089
9,H174A,0.322 ± 0.12
10,H174T,1.63 ± 0.19
11,P339A,1 ± 0.56
12,P339N,0.366 ± 0.35
13,G52I,1.64 ± 0.2
14,G52F,1.63 ± 0.18
15,A410Q,1.21 ± 0.37
16,P275D,1.63 ± 0.17
17,K82T,1.56 ± 0.17
18,I300P,1.42 ± 0.13
19,I300L,1.25 ± 0.1
20,S31R,1.54 ± 0.28
21,V3M,0.72 ± 0.44
22,V3F,0.991 ± 0.32
23,I356P,1.6 ± 0.26
24,I356M,1.21 ± 0.53

row,Variant,STK11 functional score
1,I356Q,1.58 ± 0.21
2,A273V,0.694 ± 0.13
3,A273N,1.3 ± 0.24
4,A273F,0.993 ± 0.43
5,Q214T,1.64 ± 0.2
6,Q214S,0.787 ± 0.1
7,K97G,0.699 ± 0.38
8,D284V,0.716 ± 0.093
9,K62Q,1.56 ± 0.21
10,G91L,1.54 ± 0.13
11,G91M,0.64 ± 0.2
12,T230Q,1.39 ± 0.22
13,T230P,1.1 ± 0.17
14,T230C,1.19 ± 0.34
15,D365S,1.51 ± 0.26
16,L184F,0.735 ± 0.078
17,D162A,0.819 ± 0.49
18,R147A,0.87 ± 0.19
19,R147D,-0.33 ± 0.084
20,N412W,0.786 ± 0.18
21,I79F,0.321 ± 0.076
22,R39M,1.58 ± 0.16
23,S216N,0.349 ± 0.12
24,W239M,0.267 ± 0.092

row,Variant,STK11 functional score
1,W239V,-0.13 ± 0.092
2,E265V,1.41 ± 0.37
3,K235V,0.794 ± 0.12
4,L17P,1.6 ± 0.25
5,S299T,1.55 ± 0.16
6,S299D,1.18 ± 0.16
7,M51K,1.32 ± 0.35
8,M51T,1.21 ± 0.37
9,M136K,0.279 ± 0.63
10,D176V,0.0775 ± 0.082
11,T186W,0.861 ± 0.12
12,T186A,1.16 ± 0.25
13,E342C,1.21 ± 0.35
14,K431L,1.6 ± 0.23
15,K431S,1.64 ± 0.14
16,A398D,1.18 ± 0.25
17,C134V,0.604 ± 0.11
18,P217R,0.3 ± 0.39
19,Y246G,0.403 ± 0.093
20,Y246T,0.982 ± 0.41
21,T189C,1.15 ± 0.55
22,C151K,1.67 ± 0.32
23,S240N,1.11 ± 0.44
24,S240R,0.823 ± 0.1

row,Variant,STK11 functional score
1,L286Q,0.0782 ± 0.082
2,F354A,1.54 ± 0.21
3,F354G,1.09 ± 0.23
4,F354P,1.42 ± 0.14
5,F354L,1.12 ± 0.22
6,L54Y,1.47 ± 0.19
7,G408V,1.2 ± 0.11
8,G408W,1.48 ± 0.2
9,K64Y,1.39 ± 0.39
10,V63D,-0.044 ± 0.097
11,V63W,0.213 ± 0.095
12,D208Y,0.93 ± 0.38
13,D53R,1.58 ± 0.26
14,D53M,0.483 ± 0.2
15,P326G,1.52 ± 0.15
16,E375P,1.53 ± 0.29
17,M127I,0.605 ± 0.22
18,P280E,1.69 ± 0.21
19,R426L,1.4 ± 0.16
20,V368A,1.36 ± 0.22
21,D277T,1.59 ± 0.32
22,V20T,1.6 ± 0.17
23,V20S,1.46 ± 0.22
